Results from US20210188980A1 (SHANGHAI EPIMAB BIOTHERAPEUTICS, published 2021).
Positions count from the first letter of the chain named. In names and notes the source's numbering stands. Blank lines part the entries; values can stand above or below the binder they belong to.

Tests used:
[1] = biological target: T1, recombinant human LAG-3-his protein (Novoprotein) (human, UniProt P18627 23-450); assay: BLI Octet, FIT-Ig captured, antigen analyte
T1 construct: Bought; also called huLAG-3; not shown: His tag
T1 sequence (looked up): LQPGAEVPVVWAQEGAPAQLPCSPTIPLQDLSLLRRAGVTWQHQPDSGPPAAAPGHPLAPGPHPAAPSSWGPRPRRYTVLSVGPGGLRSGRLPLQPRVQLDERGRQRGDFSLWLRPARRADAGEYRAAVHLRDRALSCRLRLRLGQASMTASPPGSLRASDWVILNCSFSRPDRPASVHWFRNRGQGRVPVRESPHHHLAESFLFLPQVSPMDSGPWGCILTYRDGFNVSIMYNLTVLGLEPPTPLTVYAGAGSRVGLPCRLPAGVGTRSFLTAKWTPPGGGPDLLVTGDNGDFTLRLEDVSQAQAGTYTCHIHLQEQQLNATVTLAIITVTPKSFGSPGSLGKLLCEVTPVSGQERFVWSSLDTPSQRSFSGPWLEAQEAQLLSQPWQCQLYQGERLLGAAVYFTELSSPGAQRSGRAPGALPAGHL

Cyno LAG-3-His = Cyno LAG-3-His (cynomolgus); assay: BLI Octet, FIT-Ig captured, antigen analyte
human PD-1-His protein = biological target: T2, human PD-1-His protein (human, UniProt Q15116 25-167, limits assumed); assay: BLI Octet, FIT-Ig captured, antigen analyte
T2 construct: also called huPD-1; not shown: His tag

Cyno PD-1-His = Cyno PD-1-His (cynomolgus, UniProt B0LAJ3 25-170); assay: BLI Octet, FIT-Ig captured, antigen analyte
[2] = biological target: T1, recombinant human LAG-3-his protein …; assay: BLI Octet, Ab on AHC sensor, huLAG-3-his; test group 3
Method: (§1) All 18 humanized antibodies (Table 34) and a chimeric antibody having the parental murine VH and VL domains (mAb747c) were ranked by dissociation rate constant (koff). Briefly, antibodies were characterized for affinities and binding kinetics by Octet®RED96 biolayer interferometry (Pall ForteBio LLC). Antibodies were captured by Anti-hIgG Fc Capture (AHC) Biosensors (Pall) at a concentration of 100 nM for 30 seconds. Sensors were then dipped into running buffer (1× pH7.2 PBS, 0.05% Tween 20, 0.1% BSA) for 60 seconds to check baseline. Binding was measured by dipping sensors into a single concentration of recombinant human LAG-3-his protein (Novoprotein). Dissociation was followed by dipping sensors into running buffer for 1200 seconds. The association and dissociation curves were fitted to a 1:1 Langmuir binding model using FortéBio Data Analysis software (Pall). In each test group, the off-rates of antibodies were able to be compared with that of mAb747c. The off-rate ratios were calculated by the off-rate of antibody to that of mAb747c of its group and were compared all together. The lower the ratio was, the higher was the affinity of the antibody.

[3] = biological target: T1, recombinant human LAG-3-his protein …; assay: BLI Octet, Ab on AHC sensor, huLAG-3-his; test group 2
Method: as §1, with “9” for “18”, “25)” for “34)”, “Octet RED96” for “Octet®RED96”, “FortéBio” for “ForteBio”, “Anti-HIgG” for “Anti-hIgG”, “(Pall).” for “(Pall). In each test group, the off-rates of antibodies were able to be compared with that of mAb747c. The off-rate ratios were calculated by the off-rate of antibody to that of mAb747c of its group and were compared all together. The lower the ratio was, the higher was the affinity of the antibody.”
All 13 humanized antibodies (Table 39) and chimeric anti-LAG-3 antibody mAb747c having the parental murine VH and VL domains were ranked by dissociation rate constant (koff) in the same manner described in Example 9.1 supra. In each test group, the off-rates of antibodies were able to be compared with that of mAb747c. The off-rate ratios were calculated by the off-rate of antibody to that of mAb747c of its group and were compared all together. The lower the ratio was, the higher was the affinity of the antibody.

T2 sequence (Q15116 25-167 limits assumed): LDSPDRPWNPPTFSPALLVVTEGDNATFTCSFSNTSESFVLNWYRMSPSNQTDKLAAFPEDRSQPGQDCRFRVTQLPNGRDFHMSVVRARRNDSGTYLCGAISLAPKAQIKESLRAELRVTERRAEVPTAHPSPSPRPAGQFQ
Sequence of Cyno PD-1-His (B0LAJ3 entry or part of it limits assumed): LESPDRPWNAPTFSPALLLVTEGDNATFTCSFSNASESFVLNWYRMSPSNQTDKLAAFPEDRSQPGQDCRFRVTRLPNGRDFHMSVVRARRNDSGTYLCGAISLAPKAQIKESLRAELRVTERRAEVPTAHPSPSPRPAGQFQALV

Kd [1]: 1.02 nM
koff [1]: 0.000117 s⁻¹
kon [1]: 115000 M⁻¹ s⁻¹
Kd (Cyno LAG-3-His): 0.428 nM
koff (Cyno LAG-3-His): 8.17e-05 s⁻¹
kon (Cyno LAG-3-His): 191000 M⁻¹ s⁻¹
Kd (human PD-1-His protein): 1.28 nM
koff (human PD-1-His protein): 0.000239 s⁻¹
kon (human PD-1-His protein): 187000 M⁻¹ s⁻¹
Kd (Cyno PD-1-His): 3.49 nM
koff (Cyno PD-1-His): 0.00107 s⁻¹
kon (Cyno PD-1-His): 306000 M⁻¹ s⁻¹
B1: FIT107-1-6a-2 (bispecific antibody, human IgG1, kappa, L234A L235A)
chain 1: not shown
chain 2: EVQLVESGGGLVQPGGSLRLSCAASGFTFSFYTMSWVRQAPGKGLEWVATISGGGRDTYYPDSVKGRFTISRDNAKNSLYLQMNSLRAEDTAVYYCAGQGGNYLFAYWGQGTLVTVSSASTKGPSVFPLAPSSKSTSGGTAALGCLVKDYFPEPVTVSWNSGALTSGVHTFPAVLQSSGLYSLSSVVTVPSSSLGTQTYICNVNHKPSNTKVDKKVEPKSC
chain 3: DIQMTQSPSSLSASVGDRVTITCRASQEISGYLSWLQQKPGGAIKRLIYAASALDLGVPSRFSGSRSGSDYTLTISSLQPEDFADYYCLQYASYPLTFGQGTKLELKRTVAAPSVFIFPPSDEQLKSGTASVVCLLNNFYPREAKVQWKVDNALQSGNSQESVTEQDSKDSTYSLSSTLTLSKADYEKHKVYACEVTHQGLSSPVTKSFNRGEC
notes: FIT-Ig hexamer; outer anti-PD-1 (HumAb709-8), inner anti-LAG-3 (HumAb747V-72 with G55A)

koff [2]: 0.0119 s⁻¹
off-rate ratio to that of mAb747c [2]: 972%
B2: HumAb747-55 (antibody, human IgG1, V domains shown)
VH: EVQLVQSGAEVKKPGATVKISCKVSDFNIKDDYMHWVQQAPGKGLEWIGWIVPENGNTEYASKFQGRVTITADTSTDTAYLELSSLRSEDTAVYYCTVYGDYWGQGTTVTVSS
VL: DIQMTQSPSSLSASVGDRVTITCRASQEISGYLSWLQQKPGGAIKRLIYAASTLDSGVPSRFSGSRSGSDYTLTISSLEPEDFADYYCLQYASYPLTFGQGTKLELK
notes: humanized mAb747; human IgG1/kappa constant domains

koff [3]: 0.000292 s⁻¹
off-rate ratio to that of mAb747c [3]: 43%
B3: HumAb747V-71 (antibody, human IgG1, V domains shown)
VH: EVQLVQSGAEVKKPGATVKLSCTASGFNIKDDYMHWVKQRPEQGLDWIGWIVPRNGNTVYASKFQGKATITADTSTNTAYLELSSLRSEDTAVYYCTVYGDYWGQGTTVTVSS
VL: B2 VL with T53A, E79Q
notes: engineered HumAb747-60 variant; human IgG1/kappa constant domains

koff [3]: 0.000247 s⁻¹
off-rate ratio to that of mAb747c [3]: 37%
B4: HumAb747V-72 (antibody, human IgG1, V domains shown)
VH: B3 VH
VL: B2 VL with T53A, S56L, E79Q
notes: as for B3

koff [2]: 0.00411 s⁻¹
off-rate ratio to that of mAb747c [2]: 335%
B5: HumAb747-57 (antibody, human IgG1, V domains shown)
VH: B2 VH with I20L, K23T, V24A
VL: B2 VL
notes: as for B2

koff [2]: 0.00405 s⁻¹
off-rate ratio to that of mAb747c [2]: 331%
B6: HumAb747-58 (antibody, human IgG1, V domains shown)
VH: B2 VH with I20L, K23T, V24A, Q38K, V68A, D77N
VL: B2 VL
notes: as for B2

koff [2]: 0.00431 s⁻¹
off-rate ratio to that of mAb747c [2]: 352%
B7: HumAb747-56 (antibody, human IgG1, V domains shown)
VH: B2 VH with I20L, V24A
VL: B2 VL
notes: as for B2

Kd [1]: 2.28 nM
koff [1]: 0.000328 s⁻¹
kon [1]: 144000 M⁻¹ s⁻¹
Kd (Cyno LAG-3-His): 0.167 nM
koff (Cyno LAG-3-His): 4.7e-05 s⁻¹
kon (Cyno LAG-3-His): 281000 M⁻¹ s⁻¹
Kd (human PD-1-His protein): 8.86 nM
koff (human PD-1-His protein): 0.00103 s⁻¹
kon (human PD-1-His protein): 116000 M⁻¹ s⁻¹
Kd (Cyno PD-1-His): 3.71 nM
koff (Cyno PD-1-His): 0.000919 s⁻¹
kon (Cyno PD-1-His): 248000 M⁻¹ s⁻¹
B8: FIT107-1-7b-3 (bispecific antibody, human IgG1, kappa, L234A L235A)
chain 1: not shown
chain 2: EVQLVQSGAEVKKPGATVKLSCTASGFNIKDDYMHWVKQRPEQGLDWIGWIVPRNANTVYASKFQGKATITADTSTNTAYLELSSLRSEDTAVYYCTVYGDYWGQGTTVTVSSASTKGPSVFPLAPSSKSTSGGTAALGCLVKDYFPEPVTVSWNSGALTSGVHTFPAVLQSSGLYSLSSVVTVPSSSLGTQTYICNVNHKPSNTKVDKKVEPKSC
chain 3: not shown
notes: FIT-Ig hexamer; outer anti-LAG-3 (HumAb747V-73 with G55A), inner anti-PD-1 (HumAb713-7)
